The source of these data is patent publication US20120045395.

For this data set, the target named is SMAD3 (endogenous, A549 cells) (Homo sapiens) (UniProt P84022). The data set is described as follows: cell_activity. As to conditions: luciferase activity after TGF-beta in A549; indirect.
Chain of SMAD3 (endogenous, A549 cells) (Homo sapiens) (P84022 2-425): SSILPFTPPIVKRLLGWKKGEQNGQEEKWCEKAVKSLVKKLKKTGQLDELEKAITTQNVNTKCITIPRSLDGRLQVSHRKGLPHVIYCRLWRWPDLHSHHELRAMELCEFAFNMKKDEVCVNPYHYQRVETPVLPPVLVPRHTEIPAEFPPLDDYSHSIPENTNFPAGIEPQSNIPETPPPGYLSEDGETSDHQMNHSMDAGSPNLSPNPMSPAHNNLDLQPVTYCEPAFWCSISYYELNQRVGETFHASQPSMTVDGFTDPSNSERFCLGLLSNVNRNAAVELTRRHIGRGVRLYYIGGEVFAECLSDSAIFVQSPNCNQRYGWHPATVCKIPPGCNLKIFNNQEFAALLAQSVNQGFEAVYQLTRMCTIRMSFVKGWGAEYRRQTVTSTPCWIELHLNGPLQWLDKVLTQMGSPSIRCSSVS

Regarding “let-7d promoter -1600 to +87 luciferase reporter (p-let-7d-luc)”, the activity (% of untreated reporter activity) is below 30.
